assay: soluble on expression in E. coli; label from the status in PepcDB or PDB records

Soluble on expression in E. coli, soluble:
SATETQIRIGVMGCADIARKVSRAIHLAPNATISGVASRSLEKAKAFATANNYPESTKIHGSYESLLEDPEIDALYVPLPTSLHVEWAIKAAEKGKHILLEKPVAMNVTEFDKIVDACEANGVQIMDGTMWVHNPRTALLKEFLSDSERFGQLKTVQSCFSFAGDEDFLKNDIRVKPGLDGLGALGDAGWYAIRATLLANNFELPKTVTAFPGAVLNEAGVILSCGASLSWEDGRTATIYCSFLANLTMEITAIGTKGTLRVHDFIIPYKETEASFTTSTKAWFNDLVTAWVSPPSEHTVKTELPQEACMVREFARLVGEIKNNGAKPDGYWPSISRKTQLVVDAVKESVDKNYQQISLSGR
MSEEGPQVKIREASKDNVDFILSNVDLAMANSLRRVMIAEIPTLAIDSVEVETNTTVLADEFIAHRLGLIPLQSMDIEQLEYSRDCFCEDHCDKCSVVLTLQAFGESESTTNVYSKDLVIVSNLMGRNIGHPIIQDKEGNGVLICKLRKGQELKLTCVAKKGIAKEHAKWGPAAAIEFEYDPWNKLKHTDYWYEQDSAKEWPQSKNCEYEDPPNEGDPFDYKAQADTFYMNVESVGSIPVDQVVVRGIDTLQKKVASILLALTQMDQDKVNFASGDNNTASNMLGSNEDVMMTGAEQDPYSNASQMGNTGSGGYDNAW
MTKPLNTTQAVIEWVNNTRRYATRLDDEADALLAQLTLAAADESALNAACASHGCVGLYGYAQSAKAHLLTTLCGNENGKLEIITPDRDYDYFSHINPGHAPANMAIRFTRDIFSNESGWPLRLRLISEAELVQIFIAWTSSSPVCRQVEKSIITSRLEKWQSLRQPQPVPGVTAEEVATIASFWRSCLPSARQHIDDATWQHFASLLPALDLTTRAHAWALLWGEQPEITQQWLALAHMLQQTGHAGELAAPLSLLVDHFGLPAENFLTQMALTANDTQSDVVVHPVKEGRLLNAVSLSLDSLALLTRELVLSVENNVLDNVDLLDIPVAPDSHPHPLWRAKLGWMLAHYRQQVQPDVLVICNALASRSQTSTAAHHLLEWVNATQPQHESALPGVVWAITPQDARFATQQNLDEAVQQLMGKPGVHWGTLQALDKHSMQRLVEWLSQATSAPQRQARLQALREQLRGRVRDLLPMFDDARLPVETVIRRLQAQAARHGDLLAGLLPPVQNFEALLSTRQSREEQVCGLFNDAIDLFADEPTRASASEGHETGYQAHKMWINHLRQWAHCRDNAQRLGLEPQMLNAVAEILITASYRLGLPQQLQKTMQREEVSGAQLHAIIGNFIAWLGYANIEEAQRPASRVQKGAAIFAATPRSTMLRLTKLDEQPVHAASRYVYDWLVALYTLANENAGYRHPQDVTDVDRAQLIALIA
SGAMYIDCDGIKLNAYLDMPKNNPEKCPLCIIIHGFTGHSEERHIVAVQETLNEIGVATLRADMYGHGKSDGKFEDHTLFKWLTNILAVVDYAKKLDFVTDIYMAGHSQGGLSVMLAAAMERDIIKALIPLSPAAMIPEIARTGELLGLKFDPENIPDELDAWDGRKLKGNYVRVAQTIRVEDFVDKYTKPVLIVHGDQDEAVPYEASVAFSKQYKNCKLVTIPGDTHCYDHHLELVTEAVKEFMLEQIAK
MLQDADRTRILAISPHLDDAVLSVGASLAQAEQDGGKVTVFTVFAGSAAPPYSPAAERFHARWGLSPTEDAPLRRRNEDIAALDQLGAGHRHGRFLDAIYRRSPDGQWLLHHNEGSMVRQQSPANNHDLVAAIREDIESMIAECDPTLVLTCVAIGKHPDHKATRDATLLAARERGIPLRLWQDLPYAAYSQDLAELPDGLRLGSPELSFVDEEARTRKFQAMKHYATQLSVLDGPNKNLFAKLDEHARNAAPDGGYNETTWPVIRYAAE
MVLAERDDRLLGFASFRRTEDFAHYQPQRADAPRAYICEAVVHPAAAGQGLGSALLEAVLAQLADEGIEDVYIDRHEENLASAGMMRKAGFV
MSLAPCGLVPSARQLEWYNREMIAFFHFGINTFEEYVNEGDGKASTAIFNPTALDCRQWMQTLKAAGIPAAILTAKHADGFCLWPSKYTDYSVKNAAWKNGKGDVVREFVDACEEYGLKAGIYLGPHDRHEHLSPLYTTERYKEYYAHQLGELMSDYGKIWETWWDGAGADELTTPVYRHWYKIVREKQPDCVIFGTKNSYPFADVRWMGNEAGEAGDPCWATTDSVAIRDEAQYYKGLNEGMLDGDAYIPAETDVSIRPSWFYHAEEDSRVKSVRELWDIYCTSVGRNSVLLLNFPPDRRGLIHSTDSLHAALLKQGIDETFSTNLLRGAKVKATNVRGAKYSPEKMLDNEKNTYFAGKDGEVKADIIFTLPKTIEFDCLMIEEVIELGHRTTKWSVEYTVDGKNWITIPEATDKQAIGHKWIVRLAPVKAKQVRLRIQDGKACPAIHTFGVYKQSPVFKEGHHHHHH

Soluble on expression in E. coli, not soluble:
MGSDKIHHHHHHMRGKILIFLHAHLPYVHHPEYDHFLEERWLFEAITETYIPLLMMFDEIEDFRLTMSITPPLMEMLSSRDLQEKYERHMEKLIELANKEVERTKKEHPLKHKMAKFYREHFEKILNVFRSYDGNILEGFKKYQETGKLEIVTCNATHAFLPLYQMYPEVVNAQITVGVKNYAKHMTLHPRGIWLAECGYYQGLDLYLAQNNVEYFFVDSHAFWFADEQPRYGVYRPIMTPSGVFAFARDPESSEQVWSAAVGYPGDPRYREFYRDIGFDREMEYIKDYIDPSGVRINTGIKYHRITSKSLDASQKEYYDIDLAMEAVEEHARDFLHKKESQARRLMDIMGVEPVIVAPFDAELFGHWWFEGVFFLKRFFELVNESKDLKLVTASEVIDTLEEVQIATPADSSWGAGGYYETWLNGTNDWIYRHLHEMIERMIDLSKKYYNSSDPLVERVLNQMLRELFLAQSSDWAFIMTTRTSVQYAENRTKLHIKRFLNLYDQLVSGRIDEEMLRYYEWTDAIFPEINFRVMARDVI
MPVLALRLTALAALVISVSGCVMEAYGSRARSDAQSWIGLPIQDVIKRFGEPERVTGDAARQKYVWKEYENYSHDYDYTYYEQGHGNTPNSSVLNQKTGTANQSGYYTCIYEFFADASGRVVDATARGECR
MGSDKIHHHHHHMPANPLPDDDLADSDTDDTGSGEHGEGGEKVRSGIQSIEVGFRLLEVLTSEPRAMMLRDLAQRAGMSPAKAHRYLVSFSRLGVVSQDPVSGRYELGGFALQMGLARLARVDGVKLARIALTELRDRVDQTVGIAVWGNQGPTIVHWMESSHPAKASLKLGDVMPLLGSATGLLFAAYLPRSKTAAMLERELADTRRSPHHGGPRTLEEVDAVLADVRAHQAARVEGMLLPTIHAFCMPVFDAVGELALAIVALGQEGTFDIAWGGEMDTALRACAQKLSYELGYSPDARDA
MGSDKIHHHHHHMTSPVENVKKKPRPLALSPSRAGDYQQCPLLYRFRAIDRLPEPKTVAQVKGTLVHAVLEYMHKLPREEREYPAMVKQLKPTWAQMCEEDAELKELVPEDELYDFLVDSRTLLRGYFEMENPQGFDATECEMYVDTVLPNGVPVRGFIDRVDTAPTGQVRVIDYKTGKKPKPQWSQQAQFQMLFYALVYWRMFNEIPAQLRLMYLKVNDSMFLNPSREQLEFFERDLGDLWAKIEMDGKAGHFRTKTSKLCGWCPHQSLCPEYGGVPPEYPGWPGSTAD
MGSDKIHHHHHHASEEDPWESINRPIFTFNDTLDTYALKPLAQGYQKVTPNFVQDGVHNFFNNLGDVKNLANNLLQAKFHNAGVDTSRLLFNSTFGLAGLIDVATPMGLQRNDEDFGQTLGYWGVGSGPYVMLPFLGPSTLRDAPAKIPDIYVSPYHYMDDVRARNVMFGINTVDTRANLLKSEKLISGDKYIFIRNAYLQNREFKVKDGEVEDDF
MGSDKIHHHHHHMTGAQPVILGDMPSLSKLYVNAAATAARRRVLGTGTGISLPPCGHEVRGVVADVGNLTAFQHLVGETASDTLPAGFIHALAFPVSMSVMNRDDFPLPLLGMVHLKNKVEQHGTILFTEALDITSWAESLRGHRAGTQVDIVAEVRRSGDAKVLWKGTSTYLAKGVFLPGIDKPSVPAPPATFSAPDPTALWELGVDTGRAYAAVSGDFNPIHLSVLSAKALGLRRSIAHGMYLASRALADVGAVKGESFSWEVSFETPVFLPARVALDISSVDSPSGAWQHSDYAAWNPRSGRRHFSGSVTALQGQD
MGSDKIHHHHHHMIIGDKRLDVIHNIKQAANERNFTAKTEIGDPVMSSEEKLALVEGFWQKQDQAKTKFDGTVGHELLQLLTKTISGSTKVNGLGKLKGLPKGGAIVTANHFNQVDALAVNRLAQKAHRRMDIVIEDTNLMLPGFFSYIMNNMGSIPLTQSPNYLGREFIQHLNQAFNQNHWVLIFPEQEMWWNYRKPRKPQRGAYYFAAKCNVPVISTFVEIQDLPKLEKQNEHFYQTRYTVHVLDVLYPDPTKTASENASRLMEEDYKLKVQAYERVYKKKLDYDFTSWDIAGWRGE
SGSHTALIEVKGMIADDEPASADNIVTALRAAFKDEGTKGIVLRINSPGGSPVQSGYIYDEIRRLRGEHPNVKVYAVISDLGASGAYYIASAADQIYADKASLVGSIGVTAASFGFVGTMEKLGVERRVYTSGEHKSFLDPFQPQKPEETQFWQQVLDTTHKQFIDSVKKGRGDRLKVEGHPELFSGLVWSGEQALQLGLIDGLGNASYVAREVVKEKKIEDYTVQESPFDRFAKKFGASVAERLALWMGWQGPVLR
MDRTLYQKQMLDLVKDSKLATKLENSIFKWTNDYMETNITPPFMFENFYQDKFSDIIKHLNIKNNPYLLEAIKTGKIKPENIAFLKPEEIYPEKFEAILNKRKLEKAIKDNQATTDAFKCPRCKKRKAKIDQKQIRAGDEPMTTFVTCVECGNVQKF
MLVPGRVYLFRIPEGKEIIEFLREFAEKENIKVGIISAIGTLRNPVIGYFMEEEKKYKEISLTGTYELLSLSGNISLKDGKPFVHAHVVLGDSEGRAFGGHLVRGEVFVAEVFVQELEGETLERKPTEHGLALWLEHHHHHH
MGHKLAFNFNLEINGSDTHSTVDVYLDDSQIITFDGKDIRPTIPFMIGDEIFLPFYKNVFSEFFSLFRRVPTSTPYEDLTYFYECDYTDNKSTFDQFYLYNGEEYTVKTQEATNKNMWLTTSEFRLKKWFDGEDCIMHLRSLVRKMEDSKRNTG
MARAIWKGAISFGLVHIPVALNTAVRTERVDFDWLDKRSMEPVGYKRVNKVTGKEIDKDNIVKGVEFEKGRYVVISEEEIRKARPETTQTIDIFSFVEAGDIPLQHFDTPYYLTPDRRGGKVYALLRETLEKTGKVALATVVLHTRQHLALLRPLDHALVMITLRWPEEVRGLETLELDASVT
SALSSCASLLGSPLSNDFMVLSLSDLLTPWEVIRKRAEAAAILDLVTVIYNPRGSRFPNNLEKVMEYFLKYRSGDTPVGIVRNAYRPDQSAKIVQLKDFSCSEIDMLTTVIIGNSETY
MSLEIDADRFFKLFDSSVQGLRQCRLISAAFELGVFKALEVPLSAGALAEKIGCDPALMPHFCEALHSLGLLDRFEEGISEEKENAQIAVKGTGEAEGKEKPGDEPGDRIKNDGAVYFVSELSATYLPGNSPFSQKHYLAERIRNVERWSRLPQIMRQGPDIVEKGPFFGEVVHCMAENARCGLLQETVRVVMENVDFTNVKKFLDLGGGHGLYSIALTSLNENLQAFVFDLPPVTSETRYFIDKYGASRVDIIPGDFFKDDIGSDYDVIFSSFNPGGKVPSLIPKIAAALKPEGVFITRQVPDESMKSSPLMSLDWNLWTFEDVKKGSSGYSFENSVLFSEYIDMLGNHGLEVFRALDMTDGSRIVFAWKVTEGHHHHHH
ATDVAARGLDISGVTHVYNYDIPQDPESYVHRIGRTGRAGKEGMAITFVQPREMGYLRIVEETTKKRMQPLQAPTWDEAFAGQLRVATEKIQEAITEENLADYKTFANELLEKYDATDIAAAMLKMLAKEPDKTPVHITEERPLPSRGGGGYKGK

Source: the DeepSol protein solubility set
